According to a protein production outcome set (Wang et al. 2014):

Experiment: label from the status in PepcDB records

Protein production, not failed:
MSNALKSIDFRTNKSKDAVIVVELASPAAIVDVKRVQEGLSIDLMNTSVKDEQLYLLDVKDFATVVESVEVFRDTSTTRLVAYIDEEYTHDYRLTGRYLEITVSKLKPNEKVPDKSILEKEGKLISINFQDIPVRNVLQLIADYNQFNLVVSDSVEGNLTLRLDGVPWQQVLDIILQVKGLDKRVDGNVILVAPTDELDLREKQQLEKQKLTEEMGELSSEIIKVNFAKASDIAEMINGEGNISMLSERGSMTIDERTNSLLIRELPENIAVIREIIESLDIPVKQVQIEARIVTISEGNMDELGIRWGFTSINGNNTVGGSIENNLATIGLYEGGGDGEGEEGGVGIDDFLNVNLAATNPNAASIAFQVAKLGSDTLLDLELSALQQESKAEIISSPRLITTNKKPAYIEQGTEIPYLESSSSGATSVTFKKAVLSLKVTPQITPDNRLVLDLSVTQDRPGKVVKTGTGEAMAIDTQRIGTQVLVNNGETVVLGGIFQHSITNSVDKVPLLGDLPLLGALFRRSYENVGKSELLIFVTPKVVIQLEHHHHHH
MSNARIGIDMSKIYAPKSIDLSSFQLPDEKLQTKYGLPHKVEFCKSCVISNQRPNSAVEYEHKKESKKHTIHFDDEGICDACRVAERKKSTINWEERDRQLRELCDRFRSKDGSYDCVVPGSGGKDSFYAAHILKYKYGMNPLTVTWAPHMYTPWGWRNFQSWIHAGFDNHLFTPNGRVHRLLTRLAVENLFHPFQPFMIGQKAYAPKMALLHKIKLVVYGENEAEYGNPIGDTESAKRDWKYFTADDKSKIFLGGTSVQELKSDFGLNDNDLDAYLPADPQQIEEQQVEVHYLGYYLKWHPQSCYYYSVEHGGFEASPERTPGTYSKYNSIDDKIDDFHYYTTLTKFGIGRATYDASQEIRSGDITVEEGVALVKRFDQEFPERFAEEIFKYLSINLKEFPIASQMFEQPIMDRAYFMALADTFRSPHLWKKDGEQWKLRHQVTNLEKTKAEYLDLETV
MSNEHQLLVGLLKKLKDDALILPTLPEVAMRVQEVVGRPDSSLKQVAEIIGQDAAISARIIKVANSALYSRGVPAENINSAVTRIGLTQIKSIATSVAMEQLFISTNEMVWEVMDEVWRTSIDVTAAACSLLQIYNKKHPGSGLNYDTLTLAGLVHNIGALPVLTEAEAHPEMFTTIEHLRSLVRKMQGPIGRAVLKSWDFAPEVMEVVERWADLPYLGDHVSYLDFIRAAAFYTGELRAGNELEQRLDVFVKRGLPVSPEDLGSDAFLDSYHSIKASYE
MSNNMQTVRESYEAFHRRDLPGVLAALAPDVRWTHPDGMSPYGLGGTKHGHDEVIAFIRHVPTHIAEMRLAPDEFIESGERIVVLGTRRVTAVNGRSATLKFVHVWRFENGRAVTFEDHFDTAEMIRLITA
MSNPLGELVKALEKLSFKPSDVRIYSLLLERGGMRVSEIARELDLSARFVRDRLKVLLKRGFVRREIVEKGWVGYIYSAEKPEKVLKEFKSSILGEIERIEKMFTD
MSNPQPEKVRVVVGDDHPLFREGVVRALSLSGSVNVVGEADDGAAALELIKAHLPDVALLDYRMPGMDGAQVAAAVRSYELPTRVLLISAHDEPAIVYQALQQGAAGFLLKDSTRTEIVKAVLDCAKGRDVVAPSLVGGLAGEIRQRAAPVAPVLSAREREVLNRIACGQSIPAIAAELYVAPSTVKTHVQRLYEKLGVSDRAAAVAEAMRQRLLD
MSPFTGSAAPTPEWRHLRVEITDGVATVTLARPDKLNALTFEAYADLRDLLAELSRRRAVRALVLAGEGRGFCSGGDVDEIIGATLSMDTARLLDFNRMTGQVVRAVRECPFPVIAALHGVAAGAGAVLALAADFRVADPSTRFAFLFTRVGLSGGDMGAAYLLPRVVGLGHATRLLMLGDTVRAPEAERIGLISELTEEGRADEAARTLARRLADGPALAHAQTKALLTAELDMPLAAAVELDASTQALLMTGEDYAEFHAAFTEKRPPKWQGR

Protein production, failed:
MSMKILKASVFVIIVFFLMPLPVVAAKKGIYCGELKGSHYGPFDYMDRFNHSEQLKIVEDFHFTSDVEDLIRGSTSSTPAKDLNYTLHAWPNHHRALVSLFKYSIKEKSTRIKGLKYPVECYFDRAIRMNMKDVQVRSIYSAFLSHRGRNKEALEQLEVAANLEPDNATILYNLGLLYFKQKNYEKASHYAEKAYALDYPLPGLRNKLIQAGKWRGSASGRSGK
MSMTKSEVCVIIAAKNAARTIAVAIASALREPEAAEVVVVDDGSTDNTAEVARSADDGSGRLKVMRLDVNRGPSFARNAAIAGSKAPFISILDADDFFLEGRFRNLFAAADWDFAADNIMLIRDDATNDATKIVAPDFAADPEFLDFERFVEGNISRRRVQRGELGFLKPVISRAFLDRHRLRYDESLRLGEDYELYARAVAHGARFKVIRSCGYGAIVRADSLSGRHKTQDLKRLADADLALLAIDSLPEGSKAVLRRHERHVRDKYRLRNFLDVKAERGLASAAAYAFASQSNLVPIVQGVASDKLEALFRRVGLVSRQKRVPPLRFLMAGTSAGKER
MSNANPDTTAAEAHRRRTFAVIAHPDAGKSTLTEALALHAHIISEAGATHGKAGRKATVSDWMEMEKDRGISIASSALQFEYAPEGHAGEPFMINLVDTPGHADFSEDTYRVLMAVDAAVMLIDAAKGLEPQTLQLFRVCKARGLPIITVINKWDRVGRTPLELVDEIVKEIELQPTPLFWPVGEAGDFRGLARINNDGEVEEYIHFTRTAGGSTIAPEDFYTPEEAIEREGDVWENATEEAELLAADGAVHDQELFLNCTTSPLIFASAMLNFGVHQILDTLCQLAPSPAGRDADPKALEAATSAMDDHRDTTDDFSGVVFKVQAGMDKNHRDTLAFMRVVSGEFDRGMQVTHSQSGRSFSTKYALTVFGRTRSTVETAFPGDIVGLVNAGALAPGDTIFEGRKIQYPPMPKFAPEHFRILRAKSLGKYKQFRKALEQLDSEGVVQILKNDLRGDANPVMAAVGPMQFEVMQARMEVEYNVETVADPIPYSVARRTTAETAPELAKQRGVEIFTRTDGELIALFSDKWRLSFIEKEHPDFVLESLVAE
MSNIFLSLEPKILWSHFYRLTQIPRPSGHEEAVRTYVADVAKRCGLEWLVDEAGNIIVRKPASAGMERRRGVILQAHLDMVPQKNAGTAHDFTKDPIDAVIDGEWVHARGTTLGADNGIGVAAALAVLESDDLRHGPLEALFTVNEEAGMTGALGLKPGVLRGDILLNLDSEDEGELFIGCAGGLDGTMRFDYSCEPLPPGYSGIEIRVSGLRGGHSGMDIDLGRGNANKIMNRLLQMGREHHGLLLASIDGGSLRNAIPRESVALVAVPSAQKVAFLDELHSLASAIGLELNGVDPELRVEAADAALPVGMIDDTVAQRLFDAVAACPNGVHRMSEAMAGLVETSNNLARVHSDGRAVSVECLLRSASVEGMRELADAVAGIAERAGTVAAFENGYPGWKPNPASPILKCMVKVYRDRFGKTPEIRAVHAGLECGIIGANNPQLDMISFGPTIRHPHSPDEKVECSSVLKFWELLVATLEEVPEPLEHHHHHH
MSNIITYLKNNSNLTFDELALNDVDILCLNEFGYISFEKLINTTEMKSVLVCELYHEYLQTMAKSYSFMFTSQRHDLCQLMMTSKRFKNLTLSYYRAEISLEFEKQFAAMVFTIPNINYHQVVFRGTDANLIGWKEDFKLTYMREISAHRSAIKYLNTILPYFDKVVLSGHSKGGNLALYAAMFTKPDLKAKIDLIWLIDSPGLQKTLLPTTEYKTTKQKCIRLLPEESIVGMMLYSDIEPLIISSNARGILQHDVTTWEIQEPAILKTGTGLSLKSICFEKTFQQWMAELKSQERKLFFDLLFDSFLSSGVSSLDDFNLASRAKMMKAFHSFRELDDDKKRLFNKSLKLLVTIFWGAYHDNSRETK
MSNLPLISVVIPTYGREEILRDSIVDVLNQDYPKYEVLVVDQSPKHKPEIETYLEEVAAAGKVKWFRLDWASLPGARNYAIRRASGEIILFIDDDVKLKPGFLAAHAKNYVQNPDVGSVAGRVFDRMKLGDSGGNLEIEYLPPEAMDPGVAWYHIDLVHTIKPQQVLTARGCNMSFRREIFTKHGLRFDERFRGSAVREESDFCLRLRQTGYKIWYDPEADLIHLGEETGGCHDISMRSLKYQFTFYHNHFLLGLKNLNFSQALRLYARLFDCHVLGRPPCHKSGSPIKIITRGIFYILGFFRALGSVIQSNWHDGQIYSRLDQESIIKSQESMVNS
MSNTTRQAGSQGSLDAFFKITQRGSNVRQEVLAGLTTFLAMVYSVIVVPSMLGKAGFPPTAVFVATCLVAGLGSLLMGLWANLPMAIGCAISLTAFTAFSLVLGQQISIPVALGAIFLMGVLFTIISVTGIRSWILRNLPLGVAHGTGIGIGLFLLIIAANGVGLVVKNPIDGLPVALGNFTSFPVIMSLLGLAATIGLEKRRVPGGILLVIVVISILGLIFDPNVKYAGFFALPSLTAADGSSLIFSLDIMGALQPLVLPSVLALVMTAVFDATGTIRAVAGQANLLDKDGQIINGGKALTADSVSSIFCSLVGTSPAAVYIESAAGTAAGGKTGLTATVVGVLFLLLLFVSPLAYLVPGYATAPALMYVGLLMLGNVSKLNFDDFVDAMSGLVCAVFIVLTCNIVTGIMLGFGALVLGRICSGEWRKLNIGTVIIAVALVAFYAGGWAL
MSNVRVLATDLAFPEGPVVMPDGSVVLVEIRAQQLTRVWPDGRKEVVAKVPGGPNGAALGPDGKMYICNNGGFGWFPSRGTMMPGAPAPHEYIGGSIQRVDLQSGEVETLFDKCGEHPLKGPNDLVFDKHGGLWFTDLGKRRARDMDVGAAYYIKPGMTEITEQVFGTLPLNGIGLSPDEATMYAAETPTGRLWAFDLSGPGEVKPRDVIYRGEKGKPICGLGGYQMFDSLAVEASGNVCVATLVSGCISVIAPDGTLVEQVPTGDRVTTNIAFGGPDLKTAYITLSGKGELIAMDWSRPGLPLNFLNK
MSNYEKVYIGTYTNGESRGIYSFNIISDSRKTTAPILSCEIENPTYLTFNMNNKTAYSVIKSGNLGGAASFYVDDRNNHLELLNCKFGYENPPERFSGKQPCYVSLDKTNSYLFSVNYHTSRVDVFPIRNDGSIDTVSSFVIHEGFGPNKERQETSHVHCAVTTPLNDFLCVVDLGTDKIVLYRFDDGILCRFNEFKLKPGCGPRHIIFHPNGKIAYIATELSSEVIVLKYSPLDGSFEELQYVSCLPTDYTGKNGSAAIHISRNSNYLYVSNRGHNSISCFHVDNSTGLLTLNSNTSTYGLSPRDFDLSSSGNLLIAANQDSSNLTIFSVDQVSGNLSKITSDIYVPNPVCVKFYHDKLEHHHHHH
MSPEAKEAQDSRRNEMPEKKRAVLRKAIKLEWATIAWVLFSIVLVGVVAGQSQAMRSAWIEDMLSLVPPIAFLLASRISKAVATRKHPYGKHRSIAIGHQAAALALLIMGSLLIYEAVSALIKGERPPIGLAILFGHDVWSGWLMIGVMISVSIPMVIVGRVKINLAKDLHDKLLYADADMAKADWGTAVASTVGVLGIGLGFWWADAVAALVISASILRDGVINMKAAISDLGDGRAMTYDNSAPHPLNDDVEKAALEMHWVKHARARIRDQGRCFHTELFVEPVEGYTPAPEEITSLVKRIQNLDWKLQDVVASVVEKIDRFQAPS
MSPFDTPRRLVAEALGTALLLAVVVGSGIMGERLSDGNIAIALLGNTLATGAALVVLIWVFGPISGAHFNPAVTLVAALRRELPLTLALAYPLAQILGGIAGVWTAHAMFGEPILQVSTKLRSGGDQAFAEVVATFGLLATILGVSRFRPESTPMAVGLYITAAYWFTASTSFANPAVTVARSLSDSFAGIAPASAPAFILAQLVGALSAAALFGWLLKTDTSR
